According to patent US20240082401A1:

Tests used:
[1] = target: CS1-BCMA-41BB-CD3 CAR (bispecific CS1-BCMA chimeric antigen receptor), expressed on T cells; assay: FACS of CAR-transduced T cells stained with biotinylated goat anti-mouse F(ab)2 and PE-streptavidin
[2] = target: CS1-BCMA-41BB-CD3 CAR (bispecific CS1-BCMA chimeric antigen receptor), expressed on T cells; assay: FACS, donor #57 T cells, goat anti-mouse F(ab)2 staining
[3] = target: BCMA-41BB-CD3-CAR (monospecific BCMA CAR), expressed on T cells; assay: FACS, donor #57 single BCMA CAR-T cells, goat anti-mouse F(ab)2 staining
[4] = target: monospecific CS1 CAR, expressed on T cells; assay: FACS, donor #57 CS1 CAR-T cells; detection reagent not named in the sentence (taken as anti-mouse F(ab)2)
[5] = target: CS1-BCMA-41BB-CD3 CAR (bispecific CS1-BCMA chimeric antigen receptor), expressed on T cells; assay: FACS, donor #890 T cells, goat anti-mouse F(ab)2 staining

Chain of CS1-BCMA-41BB-CD3 CAR (bispecific CS1-BCMA chimeric antigen receptor), expressed on T cells (chain, as listed by the source mutant): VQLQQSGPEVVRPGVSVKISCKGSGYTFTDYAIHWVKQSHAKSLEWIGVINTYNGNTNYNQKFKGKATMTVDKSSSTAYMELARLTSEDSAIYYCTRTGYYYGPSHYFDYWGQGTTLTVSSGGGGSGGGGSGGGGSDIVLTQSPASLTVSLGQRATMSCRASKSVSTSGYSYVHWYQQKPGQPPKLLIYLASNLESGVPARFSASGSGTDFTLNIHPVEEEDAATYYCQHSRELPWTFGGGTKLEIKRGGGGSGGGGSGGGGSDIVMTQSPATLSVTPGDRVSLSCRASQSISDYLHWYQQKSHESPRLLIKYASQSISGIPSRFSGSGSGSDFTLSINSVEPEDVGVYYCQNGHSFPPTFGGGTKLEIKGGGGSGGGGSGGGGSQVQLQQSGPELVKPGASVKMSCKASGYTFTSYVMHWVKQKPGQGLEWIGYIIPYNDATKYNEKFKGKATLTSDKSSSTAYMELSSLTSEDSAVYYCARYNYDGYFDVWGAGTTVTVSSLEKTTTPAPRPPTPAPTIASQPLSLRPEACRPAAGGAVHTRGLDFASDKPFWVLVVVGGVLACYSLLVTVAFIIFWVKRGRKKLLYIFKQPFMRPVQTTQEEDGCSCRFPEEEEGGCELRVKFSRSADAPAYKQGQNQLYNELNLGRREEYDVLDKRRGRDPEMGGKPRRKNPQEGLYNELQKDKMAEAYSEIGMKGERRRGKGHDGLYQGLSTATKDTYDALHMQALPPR

percentage of CAR+ cells detected [1]: > 95%
proportion of CAR cells detected [2]: > 70%
proportion of CAR cells detected [3]: 57%
percentage of CAR+ cells [4]: 68%
proportion of CAR+ cells detected [5]: 81%
Substance: Biotin-labeled polyclonal goat anti-mouse F(ab)2 antibody (Life Technologies)
